Measured values from article PMC9482650, “Quantitative fragmentomics allow affinity mapping of interactomes” (Nature Communications, 2022).

T1: GRIP1_4, Q9Y3R0
T1 sequence (Q9Y3R0 467-571, limits assumed, looked up): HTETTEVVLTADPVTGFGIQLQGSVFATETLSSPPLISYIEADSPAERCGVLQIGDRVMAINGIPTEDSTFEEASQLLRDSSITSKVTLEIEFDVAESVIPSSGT

T2: LRRC7, Q96NW7
T2 sequence (Q96NW7 1440-1537, limits assumed, looked up): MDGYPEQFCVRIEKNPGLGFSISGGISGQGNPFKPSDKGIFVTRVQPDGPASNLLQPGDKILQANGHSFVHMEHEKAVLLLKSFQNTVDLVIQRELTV

T3: SIPA1L2, Q9P2F8
T3 sequence (Q9P2F8 945-1036, limits assumed, looked up): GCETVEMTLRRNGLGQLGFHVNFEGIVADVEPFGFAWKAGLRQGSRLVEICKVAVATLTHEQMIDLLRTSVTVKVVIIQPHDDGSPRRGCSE

T4: PARD3B_1, Q8TEW8
T4 sequence (Q8TEW8 196-299, limits assumed, looked up): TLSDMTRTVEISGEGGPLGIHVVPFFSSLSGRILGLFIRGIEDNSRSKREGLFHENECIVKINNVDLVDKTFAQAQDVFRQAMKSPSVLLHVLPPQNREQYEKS

T5: PCLO, Q9Y6V0
T5 sequence (Q9Y6V0 4491-4600, limits assumed, looked up): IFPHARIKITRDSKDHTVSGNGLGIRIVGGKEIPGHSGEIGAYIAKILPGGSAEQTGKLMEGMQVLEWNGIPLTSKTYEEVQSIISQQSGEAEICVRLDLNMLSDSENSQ

T6: LNX2_2, Q8N448
T6 sequence (Q8N448 334-432, limits assumed, looked up): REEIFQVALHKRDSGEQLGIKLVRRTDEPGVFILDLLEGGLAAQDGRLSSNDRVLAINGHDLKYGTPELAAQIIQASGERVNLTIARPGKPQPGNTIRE

T7: MPDZ_10, O75970
T7 sequence (O75970 1624-1722, limits assumed, looked up): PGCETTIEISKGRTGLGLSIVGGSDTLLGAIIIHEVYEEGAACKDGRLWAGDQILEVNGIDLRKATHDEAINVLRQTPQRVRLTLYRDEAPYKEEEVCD

T8: DFNB31_3, Q9P202
T8 sequence (Q9P202 811-907, limits assumed, looked up): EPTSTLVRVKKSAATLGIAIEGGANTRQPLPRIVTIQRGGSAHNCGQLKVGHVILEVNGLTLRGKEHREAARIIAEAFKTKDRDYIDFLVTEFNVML

T9: GRIP1_7, Q9Y3R0
T9 sequence (Q9Y3R0 999-1096, limits assumed, looked up): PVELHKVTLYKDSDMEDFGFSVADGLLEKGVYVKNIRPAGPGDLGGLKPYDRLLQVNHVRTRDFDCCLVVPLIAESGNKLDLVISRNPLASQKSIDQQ

T10: DLG3_1, Q92796
T10 sequence (Q92796 125-227, limits assumed, looked up): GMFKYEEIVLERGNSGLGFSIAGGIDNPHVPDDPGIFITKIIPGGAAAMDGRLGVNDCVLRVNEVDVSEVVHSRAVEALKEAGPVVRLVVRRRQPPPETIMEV

T11: TIAM2, Q8IVF5
T11 sequence (Q8IVF5 885-986, limits assumed, looked up): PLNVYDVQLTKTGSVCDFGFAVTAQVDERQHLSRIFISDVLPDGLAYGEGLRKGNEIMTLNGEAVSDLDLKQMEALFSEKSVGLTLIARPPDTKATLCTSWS


The binders below were run against NOS1, P29475 (assay: holdup assay). Conditions: plain residues with an end cap or a label only (N-terminal biotin on a linker: ado-ado).
Chain of NOS1, P29475 (P29475 9-101): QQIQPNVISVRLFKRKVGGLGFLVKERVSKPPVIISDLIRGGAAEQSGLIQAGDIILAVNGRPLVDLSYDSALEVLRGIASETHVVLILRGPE
Parameters: key: below the threshold = too weak to quantify, mostly under pKd 3.1 to 4

pKd | Binder
below the threshold | YPKQMPLSQV [FZD8, Q9H461]

Each binder was assayed against T1, GRIP1_4, Q9Y3R0 (assay: holdup assay). Conditions: plain residues with an end cap or a label only (N-terminal biotin on a linker: ado-ado).
Parameters: key: below the threshold = too weak to quantify, mostly under pKd 3.1 to 4

pKd | Binder
below the threshold | YPKQMPLSQV [FZD8, Q9H461]

These binders were tested against LAP2, Q96RT1 (assay: holdup assay). Conditions: plain residues with an end cap or a label only (N-terminal biotin on a linker: ado-ado).
Chain of LAP2, Q96RT1 (Q96RT1 other isoform, or with tags, fused parts or gaps): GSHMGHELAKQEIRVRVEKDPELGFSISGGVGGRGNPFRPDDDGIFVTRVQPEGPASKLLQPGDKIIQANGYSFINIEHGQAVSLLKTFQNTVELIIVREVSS
Parameters: key: below the threshold = too weak to quantify, mostly under pKd 3.1 to 4

pKd | Binder
below the threshold | YPKQMPLSQV [FZD8, Q9H461]

These binders were tested against PDLIM1, O00151 (assay: holdup assay). Conditions: plain residues with an end cap or a label only (N-terminal biotin on a linker: ado-ado).
Chain of PDLIM1, O00151 (O00151 1-87): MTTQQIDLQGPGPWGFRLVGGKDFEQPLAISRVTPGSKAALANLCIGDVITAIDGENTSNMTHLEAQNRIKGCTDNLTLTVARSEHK
Parameters: key: below the threshold = too weak to quantify, mostly under pKd 3.1 to 4

pKd | Binder
below the threshold | YPKQMPLSQV [FZD8, Q9H461]

Each binder was assayed against T2, LRRC7, Q96NW7 (assay: holdup assay). Conditions: plain residues with an end cap or a label only (N-terminal biotin on a linker: ado-ado).
Parameters: key: below the threshold = too weak to quantify, mostly under pKd 3.1 to 4

pKd | Binder
below the threshold | YPKQMPLSQV [FZD8, Q9H461]

What follows are binders tested against T3, SIPA1L2, Q9P2F8 (assay: holdup assay). Conditions: plain residues with an end cap or a label only (N-terminal biotin on a linker: ado-ado).
Parameters: key: below the threshold = too weak to quantify, mostly under pKd 3.1 to 4

pKd | Binder
below the threshold | YPKQMPLSQV [FZD8, Q9H461]

The binders below were run against GRID2IP_1, A4D2P6 (assay: holdup assay). Conditions: plain residues with an end cap or a label only (N-terminal biotin on a linker: ado-ado).
Chain of GRID2IP_1, A4D2P6 (A4D2P6 1-87): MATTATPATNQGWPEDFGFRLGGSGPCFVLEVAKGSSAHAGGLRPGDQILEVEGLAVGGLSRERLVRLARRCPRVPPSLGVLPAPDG
Parameters: key: below the threshold = too weak to quantify, mostly under pKd 3.1 to 4

pKd | Binder
below the threshold | YPKQMPLSQV [FZD8, Q9H461]

These binders were tested against MAGI2_3, Q86UL8 (assay: holdup assay). Conditions: plain residues with an end cap or a label only (N-terminal biotin on a linker: ado-ado).
Chain of MAGI2_3, Q86UL8 (Q86UL8 600-682): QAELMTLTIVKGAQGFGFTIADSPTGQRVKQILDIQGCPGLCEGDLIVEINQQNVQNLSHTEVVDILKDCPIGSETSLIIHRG
Parameters: key: below the threshold = too weak to quantify, mostly under pKd 3.1 to 4

pKd | Binder
below the threshold | YPKQMPLSQV [FZD8, Q9H461]

These binders were tested against T4, PARD3B_1, Q8TEW8 (assay: holdup assay). Conditions: plain residues with an end cap or a label only (N-terminal biotin on a linker: ado-ado).
Parameters: key: below the threshold = too weak to quantify, mostly under pKd 3.1 to 4

pKd | Binder
below the threshold | YPKQMPLSQV [FZD8, Q9H461]

Each binder was assayed against DLG2_2, Q15700 (assay: holdup assay). Conditions: plain residues with an end cap or a label only (N-terminal biotin on a linker: ado-ado).
Chain of DLG2_2, Q15700 (Q15700 189-283): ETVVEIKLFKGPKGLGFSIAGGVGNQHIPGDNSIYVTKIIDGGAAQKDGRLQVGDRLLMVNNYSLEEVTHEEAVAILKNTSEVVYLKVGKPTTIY
Parameters: key: below the threshold = too weak to quantify, mostly under pKd 3.1 to 4

pKd | Binder
below the threshold | YPKQMPLSQV [FZD8, Q9H461]

What follows are binders tested against NHERF4_2, Q86UT5 (assay: holdup assay). Conditions: plain residues with an end cap or a label only (N-terminal biotin on a linker: ado-ado).
Chain of NHERF4_2, Q86UT5 (Q86UT5 220-308): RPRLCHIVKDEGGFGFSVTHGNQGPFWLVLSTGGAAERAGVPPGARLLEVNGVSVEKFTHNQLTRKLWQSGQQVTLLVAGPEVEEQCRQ
Parameters: key: below the threshold = too weak to quantify, mostly under pKd 3.1 to 4

pKd | Binder
below the threshold | YPKQMPLSQV [FZD8, Q9H461]

These binders were tested against T5, PCLO, Q9Y6V0 (assay: holdup assay). Conditions: plain residues with an end cap or a label only (N-terminal biotin on a linker: ado-ado).
Parameters: key: below the threshold = too weak to quantify, mostly under pKd 3.1 to 4

pKd | Binder
below the threshold | YPKQMPLSQV [FZD8, Q9H461]

The binders below were run against SCRIB_3, Q14160 (assay: holdup assay). Conditions: plain residues with an end cap or a label only (N-terminal biotin on a linker: ado-ado).
Chain of SCRIB_3, Q14160 (Q14160 999-1103): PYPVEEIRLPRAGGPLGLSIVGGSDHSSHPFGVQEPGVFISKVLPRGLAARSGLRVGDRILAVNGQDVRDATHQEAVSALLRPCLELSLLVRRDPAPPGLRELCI
Parameters: key: below the threshold = too weak to quantify, mostly under pKd 3.1 to 4

pKd | Binder
below the threshold | YPKQMPLSQV [FZD8, Q9H461]

These binders were tested against AHNAK1, Q09666 (assay: holdup assay). Conditions: plain residues with an end cap or a label only (N-terminal biotin on a linker: ado-ado).
Chain of AHNAK1, Q09666 (Q09666 4-100): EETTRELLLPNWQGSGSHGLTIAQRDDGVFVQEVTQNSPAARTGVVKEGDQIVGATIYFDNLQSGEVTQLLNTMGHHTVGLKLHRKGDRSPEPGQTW
Parameters: key: below the threshold = too weak to quantify, mostly under pKd 3.1 to 4

pKd | Binder
below the threshold | YPKQMPLSQV [FZD8, Q9H461]

The binders below were run against T6, LNX2_2, Q8N448 (assay: holdup assay). Conditions: plain residues with an end cap or a label only (N-terminal biotin on a linker: ado-ado).
Parameters: key: below the threshold = too weak to quantify, mostly under pKd 3.1 to 4

pKd | Binder
below the threshold | YPKQMPLSQV [FZD8, Q9H461]

The binders below were run against TJP1_2, Q07157 (assay: holdup assay). Conditions: plain residues with an end cap or a label only (N-terminal biotin on a linker: ado-ado).
Chain of TJP1_2, Q07157 (Q07157 181-274): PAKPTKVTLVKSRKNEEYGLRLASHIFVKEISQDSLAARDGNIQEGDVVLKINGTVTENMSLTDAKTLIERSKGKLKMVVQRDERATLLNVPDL
Parameters: key: below the threshold = too weak to quantify, mostly under pKd 3.1 to 4

pKd | Binder
below the threshold | YPKQMPLSQV [FZD8, Q9H461]

The binders below were run against T7, MPDZ_10, O75970 (assay: holdup assay). Conditions: plain residues with an end cap or a label only (N-terminal biotin on a linker: ado-ado).
Parameters: key: below the threshold = too weak to quantify, mostly under pKd 3.1 to 4

pKd | Binder
3.7 | YPKQMPLSQV [FZD8, Q9H461]

Each binder was assayed against T8, DFNB31_3, Q9P202 (assay: holdup assay). Conditions: plain residues with an end cap or a label only (N-terminal biotin on a linker: ado-ado).
Parameters: key: below the threshold = too weak to quantify, mostly under pKd 3.1 to 4

pKd | Binder
below the threshold | YPKQMPLSQV [FZD8, Q9H461]

The binders below were run against T9, GRIP1_7, Q9Y3R0 (assay: holdup assay). Conditions: plain residues with an end cap or a label only (N-terminal biotin on a linker: ado-ado).
Parameters: key: below the threshold = too weak to quantify, mostly under pKd 3.1 to 4

pKd | Binder
below the threshold | YPKQMPLSQV [FZD8, Q9H461]

Each binder was assayed against DLG4_2, P78352 (assay: holdup assay). Conditions: plain residues with an end cap or a label only (N-terminal biotin on a linker: ado-ado).
Chain of DLG4_2, P78352 (P78352 155-259): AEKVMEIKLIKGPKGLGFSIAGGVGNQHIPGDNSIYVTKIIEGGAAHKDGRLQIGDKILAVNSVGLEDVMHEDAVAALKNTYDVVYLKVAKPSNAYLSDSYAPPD
Parameters: key: below the threshold = too weak to quantify, mostly under pKd 3.1 to 4

pKd | Binder
below the threshold | YPKQMPLSQV [FZD8, Q9H461]

Each binder was assayed against T10, DLG3_1, Q92796 (assay: holdup assay). Conditions: plain residues with an end cap or a label only (N-terminal biotin on a linker: ado-ado).
Parameters: key: below the threshold = too weak to quantify, mostly under pKd 3.1 to 4

pKd | Binder
below the threshold | YPKQMPLSQV [FZD8, Q9H461]

These binders were tested against MAGI2_6, Q86UL8 (assay: holdup assay). Conditions: plain residues with an end cap or a label only (N-terminal biotin on a linker: ado-ado).
Chain of MAGI2_6, Q86UL8 (Q86UL8 1141-1229): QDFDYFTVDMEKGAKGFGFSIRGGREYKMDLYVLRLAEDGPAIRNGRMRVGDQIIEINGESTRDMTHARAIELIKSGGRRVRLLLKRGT
Parameters: key: below the threshold = too weak to quantify, mostly under pKd 3.1 to 4

pKd | Binder
below the threshold | YPKQMPLSQV [FZD8, Q9H461]

Each binder was assayed against Inadl_1, Q8NI35 (assay: holdup assay). Conditions: plain residues with an end cap or a label only (N-terminal biotin on a linker: ado-ado).
Chain of Inadl_1, Q8NI35 (Q8NI35 113-229): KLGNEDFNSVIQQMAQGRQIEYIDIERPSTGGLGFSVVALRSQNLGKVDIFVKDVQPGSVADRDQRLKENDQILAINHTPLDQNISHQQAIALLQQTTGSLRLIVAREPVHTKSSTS
Parameters: key: below the threshold = too weak to quantify, mostly under pKd 3.1 to 4

pKd | Binder
below the threshold | YPKQMPLSQV [FZD8, Q9H461]

The binders below were run against T11, TIAM2, Q8IVF5 (assay: holdup assay). Conditions: plain residues with an end cap or a label only (N-terminal biotin on a linker: ado-ado).
Parameters: key: below the threshold = too weak to quantify, mostly under pKd 3.1 to 4

pKd | Binder
below the threshold | YPKQMPLSQV [FZD8, Q9H461]

These binders were tested against SCRIB_2, Q14160 (assay: holdup assay). Conditions: plain residues with an end cap or a label only (N-terminal biotin on a linker: ado-ado).
Chain of SCRIB_2, Q14160 (Q14160 857-960): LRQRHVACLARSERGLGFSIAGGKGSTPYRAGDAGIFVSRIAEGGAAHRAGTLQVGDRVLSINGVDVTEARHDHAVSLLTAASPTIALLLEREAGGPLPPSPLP
Parameters: key: below the threshold = too weak to quantify, mostly under pKd 3.1 to 4

pKd | Binder
below the threshold | YPKQMPLSQV [FZD8, Q9H461]

These binders were tested against DLG1_1, Q12959 (assay: holdup assay). Conditions: plain residues with an end cap or a label only (N-terminal biotin on a linker: ado-ado).
Parameters: key: below the threshold = too weak to quantify, mostly under pKd 3.1 to 4

pKd | Binder
below the threshold | YPKQMPLSQV [FZD8, Q9H461]

The binders below were run against HTRA1, Q92743 (assay: holdup assay). Conditions: plain residues with an end cap or a label only (N-terminal biotin on a linker: ado-ado).
Chain of HTRA1, Q92743 (Q92743 360-477): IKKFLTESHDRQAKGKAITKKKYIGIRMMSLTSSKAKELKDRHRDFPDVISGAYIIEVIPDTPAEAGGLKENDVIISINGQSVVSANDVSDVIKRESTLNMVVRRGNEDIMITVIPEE
Parameters: key: below the threshold = too weak to quantify, mostly under pKd 3.1 to 4

pKd | Binder
below the threshold | YPKQMPLSQV [FZD8, Q9H461]
